Experimental findings from publication PMC8996997 (2022) are described below.

For orientation: Kd means the free concentration of one partner at which half of the binding sites on the other are occupied at equilibrium, for simple one-to-one binding. A higher Kd goes with lower affinity.

The assay addresses His×6-YY1(wt) (human, UniProt P25490 1-414). Put plainly: SPR.

B1: His×6-YY1(260–414) (domain or fragment)
chain: LPPGGIPGIDLSDPKQLAEFARMKPRKIKEDDAPRTIACPHKGCTKMFRDNSAMRKHLHTHGPRVHVCAECGKAFVESSKLKRHQLVHTGEKPFQCTFEGCGKRFSLDFNLRTHVRIHTGDRPYVCPFDGCNKKFAQSTNLKSHILTHAKAKNNQ
As to B1, the dissociation constant Kd turned out to be 258 nM.
